Measured values reported in US20230272071A1 (ARIZONA BOARD OF REGENTS ON BEHALF OF THE UNIVERSITY OF …, published 2023).

Experiments:
[1] = biological target: T1, human CD19 on Ramos cells (B-cell lymphoma) (human, UniProt P15391 20-556); test: flow cytometry of Ramos cells incubated with M12 supernatant, detected with PE anti-mouse I-A/I-E
T1 construct: whole, on cells; also called hCD19
T1 sequence (looked up): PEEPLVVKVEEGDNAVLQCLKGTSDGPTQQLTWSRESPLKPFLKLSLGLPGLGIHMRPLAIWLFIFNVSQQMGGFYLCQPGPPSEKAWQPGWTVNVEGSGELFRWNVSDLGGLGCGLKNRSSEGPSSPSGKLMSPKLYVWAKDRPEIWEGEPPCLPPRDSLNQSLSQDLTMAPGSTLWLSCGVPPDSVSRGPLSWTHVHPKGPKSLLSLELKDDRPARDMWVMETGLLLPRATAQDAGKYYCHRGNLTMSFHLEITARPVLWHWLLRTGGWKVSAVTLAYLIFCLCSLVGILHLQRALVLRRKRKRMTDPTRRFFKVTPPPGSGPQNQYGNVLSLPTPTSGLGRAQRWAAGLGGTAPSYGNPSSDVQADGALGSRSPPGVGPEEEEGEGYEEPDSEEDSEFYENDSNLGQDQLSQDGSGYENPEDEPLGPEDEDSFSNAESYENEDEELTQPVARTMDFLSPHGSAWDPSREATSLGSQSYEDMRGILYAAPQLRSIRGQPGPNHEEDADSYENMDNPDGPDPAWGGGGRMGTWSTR
Experimental: Ramos cells were incubated with culture media (negative control) or supernatant from M12 cells expressing BMiMS, then stained with fluorophore conjugated antibodies against the indicated immune molecules and analyzed by flow cytometry.
M12 cells were cultured to confluency (1-2×10⁶ cells/mL) in complete RPMI (5% FCS) and the supernatant was harvested for analysis as described above. Ramos cells were harvested, washed, and 1×10⁶ were incubated with media (negative control) or 0.250 mL of concentrated (50 mL down to 0.250 mL in Amicon Ultra 15 10 kDa (Millipore)) M12 cell culture supernatant at 4° C. for 1 hour. After washing, cells were stained with PE conjugated anti-mouse I-A/I-E (clone M5/14. 15.2, eBiosciences), PE conjugated anti-mCD80 (clone 16-10A1, BioLegend), anti-mCD86 (clone GL-1, BioLegend) or anti-mlCAM-1 (clone YN1/1.7.4, eBioscience) and analyzed by flow cytometry.

[2] = biological target: T2, recombinant huCD19 (BioLegend) (human, UniProt P15391 20-291, limits assumed); test: plate coated with 4 ug/ml recombinant huCD19, BMiMS supernatant, washed; retention read through IL-2 of 5c.c7 T cells
T2 construct: Bought reagent; also called rhuCD19
T2 sequence (looked up): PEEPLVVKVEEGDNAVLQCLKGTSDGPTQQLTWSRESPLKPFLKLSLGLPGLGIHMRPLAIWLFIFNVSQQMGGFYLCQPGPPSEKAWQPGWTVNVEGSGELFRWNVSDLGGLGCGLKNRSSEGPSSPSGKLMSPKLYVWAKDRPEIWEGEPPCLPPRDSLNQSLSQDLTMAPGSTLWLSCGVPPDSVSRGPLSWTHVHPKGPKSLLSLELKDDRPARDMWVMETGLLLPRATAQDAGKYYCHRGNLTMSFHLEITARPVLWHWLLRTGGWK
Experimental: An experiment was designed to determine whether BMiMS can bind huCD19 and stimulate CD4+ T cells. See FIG. 9A. pMHCII-based BMiMS were made with the moth cytochrome c […] peptide (MCC) tethered with a flexible linker to I-E^k (MCC:I-E^k) which is recognized by the 5c.c7 TCR. For a pilot experiment, the wells of a 96-well plate were coated with 4 μg/ml recombinant huCD19 (BioLegend). The wells were washed and then incubated with concentrated supernatant from cells expressing pMHCII-BMiMS, CD80-BMiMS, or both. Naive 5c.c7+CD4+ T cells from 5c.c7 TCR transgenic mice (RagKO) were then incubated for 18 hr in the wells prior to harvesting of the supernatant for measurement of IL-2 by ELISA. No IL-2 was produced by cells cultured in wells with huCD19 only or the huCD19+CD80 BMiMS. IL-2 was produced by T cells cultured in wells with huCD19+pMHCII-BMiMS, and higher levels of IL-2 were produced by T cells cultured in wells coated with huCD19+pMHCII-BMiMS+CD80-BMiMS.

B1: mMHCII-Anti-hCD19 BMiMS (MCC:I-E^k fused to anti-hCD19 AltIg Fv of mAb B43, opened C-C' loop) (other)
MHC II alpha: CIKEEHTIIQAEFYLLPDKRGEFMFDFDGDEIFHVDIEKSETIWRLEEFAKFASFEAQGALANIAVDKANLDVMKERSNNTPDANVAPEVTVLSRSPVNLGEPNILICFIDKFSPPVVNVTWLRNGRPVTEGVSETVFLPRDDHLFRKFHYLTFLPSTDDFYDCEVDHWGLEEPLRKHWEFEEKTLLPETKESRGGLEVLFQGPEFGGSTTAPSAQLEKELQALEKENAQLEWELQALEKELAQAAAGQPPKLLIYDASNLVSGIPPRFSGSGSGTDFTLNIHPVEKVDAATYHCQQSTEDPWTFGGGTKLEIKSPGSGGGGSGGGGSGGGGSSGELVLTQSPASLAVSLGQRATISCKASQSVDYDGDSYLNWYQQIGGGGSHHHHHH
MHC II beta: CADPSGSANERADLIAYLKQATKEFRSGGGGSLVPRGSGGGGSVDRPWFLEYCKSECHFYNGTQRVRLLVRYFYNLEENLRFDSDVGEFRAVTELGRPDAENWNSQPEFLEQKRAEVDTVCRHNYEIFDNFLVPRRVEPTVTVYPTKTQPLEHHNLLVCSVSDFYPGNIEVRWFRNGKEEKTGIVSTGLVRNGDWTFQTLVMLETVPQSGEVYTCQVEHPSLTDPVTVEWKAQSTSAQNKSRGGLEVLFQGPEFGGSTTAPSAQLKKKLQALKKKNAQLKWKLQALKKKLAQAAAGQGLEWIGQIWPGDGDTNYNGKFKGKATLTADESSSTAYMQLSSLRSEDSAVYSCARRETTTVGRYYYAMDYWGQGTTVTSPGSGGGGSGGGGSGGGGSSGQVQLLESGAELVRPGSSVKISCKASGYAFSSYWMNWVKQRGGGGSHHHHHH
notes: Heterodimer secreted by M12 cells, used as concentrated culture supernatant; also called pMHCII-BMiMS; pMHCII-based BMiMS
- binding result [1]: binds
- binding result [2]: binds
